This data set concerns the molecule itself. Description: SEC-MALS. A general note: Size exclusion chromatography separates by hydrodynamic size, large species first.

This is an account of results in article PMC9915745 (ArXiv, 2023).

B1: E. coli periplasmic chaperone HdeA, wild type (natural protein)
chain: ADAQKAADNKKPVNSWTCEDFLAVDESFQPTAVGFAEALNNKDKPEDAVLDVQGIATVTPAIVQACTQDKQANFKDKVKGEWDKIKKDM
modifications: native disulfide between Cys18 and Cys66
The stoichiometry N is the number of molecules, sites or subunits per partner or assembly. Take B1: the “stoichiometry N” value came out at 2.
